# According to IntAct's records for PubMed 29892012:
# B1: Genetic suppressor element 1 (Homo sapiens), Q14687 (parent)
# chain: MKGMSHEPKSPSLGMLSTATRTTATVNPLTPSPLNGALVPSGSPATSSALSAQAAPSSSFAAALRKLAKQAEEPRGSSLSSESSPVSSPATNHSSPASTPKRVPMGPIIVPPGGHSVPSTPPVVTIAPTKTVNGVWRSESRQDAGSRSSSGGRERLIVEPPLPQEKAGGPAIPSHLLSTPYPFGLSPSSVVQDSRFPPLNLQRPVHHVVPPSTVTEDYLRSFRPYHTTDDLRMSSLPPLGLDPATAAAYYHPSYLAPHPFPHPAFRMDDSYCLSALRSPFYPIPTPGSLPPLHPSAMHLHLSGVRYPPELSHSSLAALHSERMSGLSAERLQMDEELRREREREREREREREADREREKEREREREKEREQEKEREREKERERELERQREQRAREKELLAAKALEPSFLPVAELHGLRGHATEERGKPSEQLTPTRAEKLKDAGLQAPKPVQHPLHPVPTPHHTVPSLISNHGIFSLPSSSAATALLIQRTNEEEKWLARQRRLRQEKEDRQSQVSEFRQQVLEQHLDMGRPPVPAEAEHRPESTTRPGPNRHEPGGRDPPQHFGGPPPLISPKPQLHAAPTALWNPVSLMDNTLETRRAESHSLHSHPAAFEPSRQAAVPLVKVERVFCPEKAEEGPRKREPAPLDKYQPPPPPPREGGSLEHQPFLPGPGPFLAELEKSTQTILGQQRASLPQAATFGELSGPLKPGSPYRPPVPRAPDPAYIYDEFLQQRRRLVSKLDLEERRRREAQEKGYYYDLDDSYDESDEEEVRAHLRCVAEQPPLKLDTSSEKLEFLQLFGLTTQQQKEELVAQKRRKRRRMLRERSPSPPTIQSKRQTPSPRLALSTRYSPDEMNNSPNFEEKKKFLTIFNLTHISAEKRKDKERLVEMLRAMKQKALSAAVADSLTNSPRDSPAVSLSEPATQQASLDVEKPVGVAASLSDIPKAAEPGKLEQVRPQELSRVQELAPASGEKARLSEAPGGKKSLSMLHYIRGAAPKDIPVPLSHSTNGKSKPWEPFVAEEFAHQFHESVLQSTQKALQKHKGSVAVLSAEQNHKVDTSVHYNIPELQSSSRAPPPQHNGQQEPPTARKGPPTQELDRDSEEEEEEDDEDGEDEEEVPKRKWQGIEAVFEAYQEHIEEQNLERQVLQTQCRRLEARHYSLSLTAEQLSHSVAELRSQKQKMVSERERLQAELDHLRKCLALPAMHWPRGYLKGYPR
# partner: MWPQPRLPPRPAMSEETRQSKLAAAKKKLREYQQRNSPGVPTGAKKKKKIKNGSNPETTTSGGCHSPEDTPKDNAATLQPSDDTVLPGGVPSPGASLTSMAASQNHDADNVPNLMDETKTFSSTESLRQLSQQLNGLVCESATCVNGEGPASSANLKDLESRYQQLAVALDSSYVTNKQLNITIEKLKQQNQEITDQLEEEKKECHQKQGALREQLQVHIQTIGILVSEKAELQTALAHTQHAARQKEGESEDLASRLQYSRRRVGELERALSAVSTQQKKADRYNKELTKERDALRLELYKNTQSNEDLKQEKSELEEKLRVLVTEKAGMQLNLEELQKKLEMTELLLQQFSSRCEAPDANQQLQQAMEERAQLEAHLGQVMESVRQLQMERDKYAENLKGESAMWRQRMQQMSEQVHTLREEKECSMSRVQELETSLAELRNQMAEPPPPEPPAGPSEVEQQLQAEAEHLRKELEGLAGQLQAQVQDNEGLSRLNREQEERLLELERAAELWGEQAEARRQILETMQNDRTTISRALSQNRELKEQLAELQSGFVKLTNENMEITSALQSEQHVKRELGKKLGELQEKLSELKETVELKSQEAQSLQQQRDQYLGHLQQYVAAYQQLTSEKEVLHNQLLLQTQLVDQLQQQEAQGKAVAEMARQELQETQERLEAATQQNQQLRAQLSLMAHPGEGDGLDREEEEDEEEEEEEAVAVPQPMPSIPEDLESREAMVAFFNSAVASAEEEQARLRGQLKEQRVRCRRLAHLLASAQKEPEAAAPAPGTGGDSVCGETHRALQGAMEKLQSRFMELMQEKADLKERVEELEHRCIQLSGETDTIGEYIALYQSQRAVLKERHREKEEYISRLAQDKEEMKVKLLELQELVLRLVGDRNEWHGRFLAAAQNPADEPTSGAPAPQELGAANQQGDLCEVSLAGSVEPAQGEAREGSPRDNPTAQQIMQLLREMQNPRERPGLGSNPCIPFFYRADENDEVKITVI
# B2: Casein kinase II subunit alpha (Homo sapiens), P68400 (parent)
# chain: MSGPVPSRARVYTDVNTHRPREYWDYESHVVEWGNQDDYQLVRKLGRGKYSEVFEAINITNNEKVVVKILKPVKKKKIKREIKILENLRGGPNIITLADIVKDPVSRTPALVFEHVNNTDFKQLYQTLTDYDIRFYMYEILKALDYCHSMGIMHRDVKPHNVMIDHEHRKLRLIDWGLAEFYHPGQEYNVRVASRYFKGPELLVDYQMYDYSLDMWSLGCMLASMIFRKEPFFHGHDNYDQLVRIAKVLGTEDLYDYIDKYNIELDPRFNDILGRHSRKRWERFVHSENQHLVSPEALDFLDKLLRYDHQSRLTAREAMEHPYFYTVVKDQARMGSSSMPGGSTPVSSANMMSGISSVPTPSPLGPLAGSPVIAAANPLGMPVPAAAGAQQ
# B3: CLK4-associating serine/arginine rich protein (Homo sapiens), Q8N2M8 (parent)
# chain: MWHEARKHERKLRGMMVDYKKRAERRREYYEKIKKDPAQFLQVHGRACKVHLDSAVALAAESPVNMMPWQGDTNNMIDRFDVRAHLDHIPDYTPPLLTTISPEQESDERKCNYERYRGLVQNDFAGISEEQCLYQIYIDELYGGLQRPSEDEKKKLAEKKASIGYTYEDSTVAEVEKAAEKPEEEESAAEEESNSDEDEVIPDIDVEVDVDELNQEQVADLNKQATTYGMADGDFVRMLRKDKEEAEAIKHAKALEEEKAMYSGRRSRRQRREFREKRLRGRKISPPSYARRDSPTYDPYKRSPSESSSESRSRSRSPTPGREEKITFITSFGGSDEEAAAAAAAAAASGVTTGKPPAPPQPGGPAPGRNASARRRSSSSSSSSSASRTSSSRSSSRSSSRSRRGGGYYRSGRHARSRSRSWSRSRSRSRRYSRSRSRGRRHSGGGSRDGHRYSRSPARRGGYGPRRRSRSRSHSGDRYRRGGRGLRHHSSSRSRSSWSLSPSRSRSLTRSRSHSPSPSQSRSRSRSRSQSPSPSPAREKLTRPAASPAVGEKLKKTEPAAGKETGAAKPKLTPQEKLKLRMQKALNRQFKADKKAAQEKMIQQEHERQEREDELRAMARKIRMKERERREKEREEWERQYSRQSRSPSPRYSREYSSSRRRSRSRSRSPHYRH
# partner: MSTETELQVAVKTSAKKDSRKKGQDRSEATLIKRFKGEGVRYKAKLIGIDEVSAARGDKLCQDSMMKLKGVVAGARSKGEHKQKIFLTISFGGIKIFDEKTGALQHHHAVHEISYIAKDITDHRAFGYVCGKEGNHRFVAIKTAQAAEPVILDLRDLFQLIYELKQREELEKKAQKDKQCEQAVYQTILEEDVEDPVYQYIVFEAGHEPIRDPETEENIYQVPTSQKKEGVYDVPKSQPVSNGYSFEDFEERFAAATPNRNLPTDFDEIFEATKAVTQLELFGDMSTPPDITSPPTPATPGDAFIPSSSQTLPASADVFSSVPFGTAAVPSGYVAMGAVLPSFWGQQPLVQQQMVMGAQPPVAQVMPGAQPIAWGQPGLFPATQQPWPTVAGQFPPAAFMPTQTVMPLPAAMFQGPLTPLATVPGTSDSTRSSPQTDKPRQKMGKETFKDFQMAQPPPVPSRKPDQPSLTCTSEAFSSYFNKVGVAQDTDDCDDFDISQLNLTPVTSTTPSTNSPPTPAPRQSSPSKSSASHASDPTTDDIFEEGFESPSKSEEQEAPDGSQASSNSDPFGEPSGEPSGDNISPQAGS
# B4: Protein VAC14 homolog (Homo sapiens), Q08AM6 (parent)
# chain: MNPEKDFAPLTPNIVRALNDKLYEKRKVAALEIEKLVREFVAQNNTVQIKHVIQTLSQEFALSQHPHSRKGGLIGLAACSIALGKDSGLYLKELIEPVLTCFNDADSRLRYYACEALYNIVKVARGAVLPHFNVLFDGLSKLAADPDPNVKSGSELLDRLLKDIVTESNKFDLVSFIPLLRERIYSNNQYARQFIISWILVLESVPDINLLDYLPEILDGLFQILGDNGKEIRKMCEVVLGEFLKEIKKNPSSVKFAEMANILVIHCQTTDDLIQLTAMCWMREFIQLAGRVMLPYSSGILTAVLPCLAYDDRKKSIKEVANVCNQSLMKLVTPEDDELDELRPGQRQAEPTPDDALPKQEGTASGGPDGSCDSSFSSGISVFTAASTERAPVTLHLDGIVQVLNCHLSDTAIGMMTRIAVLKWLYHLYIKTPRKMFRHTDSLFPILLQTLSDESDEVILKDLEVLAEIASSPAGQTDDPGPLDGPDLQASHSELQVPTPGRAGLLNTSGTKGLECSPSTPTMNSYFYKFMINLLKRFSSERKLLEVRGPFIIRQLCLLLNAENIFHSMADILLREEDLKFASTMVHALNTILLTSTELFQLRNQLKDLKTLESQNLFCCLYRSWCHNPVTTVSLCFLTQNYRHAYDLIQKFGDLEVTVDFLAEVDKLVQLIECPIFTYLRLQLLDVKNNPYLIKALYGLLMLLPQSSAFQLLSHRLQCVPNPELLQTEDSLKAAPKSQKADSPSIDYAELLQHFEKVQNKHLEVRHQRSGRGDHLDRRVVL
# partner: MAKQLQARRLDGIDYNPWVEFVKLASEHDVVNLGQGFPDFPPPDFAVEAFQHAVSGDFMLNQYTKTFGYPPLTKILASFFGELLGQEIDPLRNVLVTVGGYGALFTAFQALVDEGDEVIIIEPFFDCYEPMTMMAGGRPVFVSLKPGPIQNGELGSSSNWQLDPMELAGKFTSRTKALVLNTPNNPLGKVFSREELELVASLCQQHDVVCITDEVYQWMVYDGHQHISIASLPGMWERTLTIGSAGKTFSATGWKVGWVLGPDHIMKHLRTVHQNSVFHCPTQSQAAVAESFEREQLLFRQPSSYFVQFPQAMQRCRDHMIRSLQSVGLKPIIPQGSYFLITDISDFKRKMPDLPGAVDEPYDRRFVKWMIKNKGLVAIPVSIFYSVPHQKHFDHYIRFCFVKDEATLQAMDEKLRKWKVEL
# B5: Ribosome assembly protein METTL17, mitochondrial (Homo sapiens), Q9H7H0 (parent)
# chain: MAAALKCLLTLGRWCPGLGVAPQARALAALVPGVTQVDNKSGFLQKRPHRQHPGILKLPHVRLPQALANGAQLLLLGSAGPTMENQVQTLTSYLWSRHLPVEPEELQRRARHLEKKFLENPDLSQTEEKLRGAVLHALRKTTYHWQELSYTEGLSLVYMAARLDGGFAAVSRAFHEIRARNPAFQPQTLMDFGSGTGSVTWAAHSIWGQSLREYMCVDRSAAMLVLAEKLLKGGSESGEPYIPGVFFRQFLPVSPKVQFDVVVSAFSLSELPSKADRTEVVQTLWRKTGHFLVLVENGTKAGHSLLMDARDLVLKGKEKSPLDPRPGFVFAPCPHELPCPQLTNLACSFSQAYHPIPFSWNKKPKEEKFSMVILARGSPEEAHRWPRITQPVLKRPRHVHCHLCCPDGHMQHAVLTARRHGRDLYRCARVSSWGDLLPVLTPSAFPPSTAQDPSES
# partner: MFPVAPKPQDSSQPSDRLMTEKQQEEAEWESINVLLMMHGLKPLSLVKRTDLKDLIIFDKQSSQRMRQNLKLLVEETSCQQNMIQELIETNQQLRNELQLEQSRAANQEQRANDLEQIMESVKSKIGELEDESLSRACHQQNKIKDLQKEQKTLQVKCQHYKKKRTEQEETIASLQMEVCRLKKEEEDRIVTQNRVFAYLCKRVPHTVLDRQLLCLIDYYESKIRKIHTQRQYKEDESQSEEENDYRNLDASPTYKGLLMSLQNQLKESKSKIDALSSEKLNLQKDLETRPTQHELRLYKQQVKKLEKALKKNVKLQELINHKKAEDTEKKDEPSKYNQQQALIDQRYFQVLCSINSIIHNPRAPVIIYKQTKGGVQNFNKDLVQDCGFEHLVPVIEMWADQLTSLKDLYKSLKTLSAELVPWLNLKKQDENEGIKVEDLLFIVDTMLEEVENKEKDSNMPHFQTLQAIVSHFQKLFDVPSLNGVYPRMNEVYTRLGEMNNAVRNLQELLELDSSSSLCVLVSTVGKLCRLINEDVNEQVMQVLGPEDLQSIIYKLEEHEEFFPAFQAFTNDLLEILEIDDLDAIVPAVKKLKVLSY
# Variants of: B1
# Settings: with goga2_human GOLGA2, Q08379
row,effect of a mutation on the interaction,Variant
1,with no effect,E368K

# Variants of: B2
# Settings: with nfya_human NFYA
row,effect of a mutation on the interaction,Variant
1,with no effect,K198R

# Variants of: B3
# Settings: with dab1_human DAB1, O75553
row,effect of a mutation on the interaction,Variant
1,with no effect,I163V

# Variants of: B4
# Settings: with kat1_human KYAT1, Q16773
row,effect of a mutation on the interaction,Variant
1,with no effect,A127S

# Variants of: B5
# Settings: with cep70_human CEP70, Q8NHQ1
row,effect of a mutation on the interaction,Variant
1,with no effect,R212H
